This data set deals with the molecule itself. The experiment in a line: high-speed atomic force microscopy.

B1: Recombinant Human Neuronal Pentraxin 1 Protein (NP1) (natural protein, UniProt Q15818 23-432, looked up)
chain: QDFGPTRFICTSVPVDADMCAASVAAGGAEELRSSVLQLRETVLQQKETILSQKETIRELTAKLGRCESQSTLDPGAGEARAGGGRKQPGSGKNTMGDLSRTPAAETLSQLGQTLQSLKTRLENLEQYSRLNSSSQTNSLKDLLQSKIDELERQVLSRVNTLEEGKGGPRNDTEERVKIETALTSLHQRISELEKGQKDNRPGDKFQLTFPLRTNYMYAKVKKSLPEMYAFTVCMWLKSSATPGVGTPFSYAVPGQANELVLIEWGNNPMEILINDKVAKLPFVINDGKWHHICVTWTTRDGVWEAYQDGTQGGSGENLAPYHPIKPQGVLVLGQEQDTLGGGFDATQAFVGELAHFNIWDRKLTPGEVYNLATCSTKALSGNVIAWAESHIEIYGGATKWTFEACRQIN
Consider B1, for which the binding result was “binds”.

(Values after publication doi:10.1101/2023.12.19.572481 (bioRxiv, 2023).)
